Measurements reported in patent US20250109209A1 (ABSCI, published 2025).
Where two headings read alike, the source gives them in different places.

T1: human TL1A (human, UniProt O95150 72-251)
T1 construct: Antigen in SPR and ELISA; Also used here for places that print only 'TL1A' and for endogenous TL1A in human whole blood; also called TNFSF15
T1 sequence (looked up): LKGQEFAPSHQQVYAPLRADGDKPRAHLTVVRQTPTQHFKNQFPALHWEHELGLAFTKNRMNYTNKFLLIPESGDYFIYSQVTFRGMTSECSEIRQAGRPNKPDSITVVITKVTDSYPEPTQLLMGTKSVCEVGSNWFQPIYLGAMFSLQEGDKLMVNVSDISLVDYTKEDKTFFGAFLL

T2: Cyno TL1A (cyno, UniProt G7PRK8 72-251)
T2 sequence: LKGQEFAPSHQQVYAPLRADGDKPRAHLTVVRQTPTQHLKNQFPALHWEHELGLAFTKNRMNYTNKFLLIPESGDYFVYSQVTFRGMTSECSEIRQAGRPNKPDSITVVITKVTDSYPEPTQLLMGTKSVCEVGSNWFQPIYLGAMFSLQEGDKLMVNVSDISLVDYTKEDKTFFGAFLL

T3: mouse TL1A (mouse, UniProt Q5UBV8 76-252, limits assumed)
T3 sequence (looked up): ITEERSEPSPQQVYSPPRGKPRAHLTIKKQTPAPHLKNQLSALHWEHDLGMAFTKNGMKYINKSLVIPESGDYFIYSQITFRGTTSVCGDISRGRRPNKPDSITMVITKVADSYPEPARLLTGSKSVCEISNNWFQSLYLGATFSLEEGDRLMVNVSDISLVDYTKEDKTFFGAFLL

B1: Antibody 2 (mAb format) (antibody, human IgG1, kappa, N297A)
heavy: QVQLQESGPGLVRPSQTLSLTCTVSGLDPDDTYMHWVRQRPGRGLEWMGRIEPAGGHTKYNPSLKSRVTITRDTSKNQVSLRLSSVTAADTAVYYCVISGGLPDVWGQGSLVTVSSASTKGPSVFPLAPSSKSTSGGTAALGCLVKDYFPEPVTVSWNSGALTSGVHTFPAVLQSSGLYSLSSVVTVPSSSLGTQTYICNVNHKPSNTKVDKKVEPKSCDKTHTCPPCPAPELLGGPSVFLFPPKPKDTLMISRTPEVTCVVVDVSHEDPEVKFNWYVDGVEVHNAKTKPREEQYASTYRVVSVLTVLHQDWLNGKEYKCKVSNKALPAPIEKTISKAKGQPREPQVYTLPPSRDELTKNQVSLTCLVKGFYPSDIAVEWESNGQPENNYKTTPPVLDSDGSFFLYSKLTVDKSRWQQGNVFSCSVLHEALHSHYTQKSLSLSPGK
light: DIQMTQSPSSLSASVGDRVTITCRASSSVSYMYWYQQKPGKAPKLLIYATSNLASGVPSRFSGSGSGTDFTFTISSLQPEDIATYYCQQWEGNPRTFGQGTKVEIKRTVAAPSVFIFPPSDEQLKSGTASVVCLLNNFYPREAKVQWKVDNALQSGNSQESVTEQDSKDSTYSLSSTLTLSKADYEKHKVYACEVTHQGLSSPVTKSFNRGEC
notes: also called high priority lead mAb
B2: Antibody 10 (mAb format) (antibody, human IgG1, kappa, N297A)
heavy: QVQLQESGPGLVRPSQTLSLTCTVSGLDPDDTYMHWVRQRPGRGLEWMGRIEPAGGHTKYNPSLKSRVTITRDTSKNQVSLRLSSVTAADTAVYYCVISGGLPDVWGQGSLVTVSSASTKGPSVFPLAPSSKSTSGGTAALGCLVKDYFPEPVTVSWNSGALTSGVHTFPAVLQSSGLYSLSSVVTVPSSSLGTQTYICNVNHKPSNTKVDKKVEPKSCDKTHTCPPCPAPELLGGPSVFLFPPKPKDTLMISRTPEVTCVVVDVSHEDPEVKFNWYVDGVEVHNAKTKPREEQYASTYRVVSVLTVLHQDWLNGKEYKCKVSNKALPAPIEKTISKAKGQPREPQVYTLPPSRDELTKNQVSLTCLVKGFYPSDIAVEWESNGQPENNYKTTPPVLDSDGSFFLYSKLTVDKSRWQQGNVFSCSVLHEALHSHYTQKSLSLSPGK
light: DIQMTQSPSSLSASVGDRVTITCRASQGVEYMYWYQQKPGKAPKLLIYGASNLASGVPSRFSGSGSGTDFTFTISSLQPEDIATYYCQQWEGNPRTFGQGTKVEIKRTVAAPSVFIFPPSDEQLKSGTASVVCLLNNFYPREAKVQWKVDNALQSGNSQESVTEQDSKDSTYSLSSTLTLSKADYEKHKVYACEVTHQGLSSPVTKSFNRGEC
notes: as for B1
B3: Antibody 20 (mAb format) (antibody, human IgG1, kappa, N297A)
heavy: QVQLQESGPGLVRPSQTLSLTCTVSGFDIQDTYMHWVRQRPGRGLEWMGRIEPASGHTKYNPSLKSRVTITRDTSKNQVSLRLSSVTAADTAVYYCARSGGMPDMWGQGSLVTVSSASTKGPSVFPLAPSSKSTSGGTAALGCLVKDYFPEPVTVSWNSGALTSGVHTFPAVLQSSGLYSLSSVVTVPSSSLGTQTYICNVNHKPSNTKVDKKVEPKSCDKTHTCPPCPAPELLGGPSVFLFPPKPKDTLMISRTPEVTCVVVDVSHEDPEVKFNWYVDGVEVHNAKTKPREEQYASTYRVVSVLTVLHQDWLNGKEYKCKVSNKALPAPIEKTISKAKGQPREPQVYTLPPSRDELTKNQVSLTCLVKGFYPSDIAVEWESNGQPENNYKTTPPVLDSDGSFFLYSKLTVDKSRWQQGNVFSCSVLHEALHSHYTQKSLSLSPGK
light: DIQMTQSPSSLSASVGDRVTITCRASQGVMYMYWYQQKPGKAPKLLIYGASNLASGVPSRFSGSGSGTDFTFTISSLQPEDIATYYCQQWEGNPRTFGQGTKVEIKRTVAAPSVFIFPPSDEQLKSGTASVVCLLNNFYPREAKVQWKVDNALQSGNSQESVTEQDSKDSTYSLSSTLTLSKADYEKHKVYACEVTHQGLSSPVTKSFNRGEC
notes: as for B1

Columns and labels:
human TL1A [1] = molecular target: T1, human TL1A; assay: SPR, mAb format, average
human TL1A [2] = molecular target: T1, human TL1A; assay: SPR, mAb format, average; remark: listed apart in the source
Cyno TL1A = molecular target: T2, Cyno TL1A; assay: SPR, mAb format, average
human TL1A [3] = molecular target: T1, human TL1A; assay: SPR, mAb format, average; remark: listed apart in the source
mouse TL1A [4] = molecular target: T3, mouse TL1A; assay: SPR, mAb format
FcRn = molecular target: T4, FcRn (UniProt P55899 24-297; P61769 21-119); assay: SPR, mAb format, FcRn at pH 6.0, average
T4 construct: also called neonatal receptor
T4 sequence (P55899 24-297 limits assumed, chain 1 of 2): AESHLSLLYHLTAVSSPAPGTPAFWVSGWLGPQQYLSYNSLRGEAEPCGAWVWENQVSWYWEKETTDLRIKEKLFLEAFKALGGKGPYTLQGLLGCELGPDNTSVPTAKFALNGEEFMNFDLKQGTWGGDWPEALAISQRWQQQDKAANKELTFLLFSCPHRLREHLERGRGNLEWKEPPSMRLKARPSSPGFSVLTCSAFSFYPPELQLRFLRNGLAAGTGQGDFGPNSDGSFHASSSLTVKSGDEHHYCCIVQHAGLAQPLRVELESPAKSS
T4 sequence (P61769 21-119 limits assumed, chain 2 of 2): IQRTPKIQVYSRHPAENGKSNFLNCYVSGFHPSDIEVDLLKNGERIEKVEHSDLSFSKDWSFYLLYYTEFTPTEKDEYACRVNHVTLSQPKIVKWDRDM

mouse TL1A [5] = molecular target: T3, mouse TL1A; assay: SPR, mAb format, average

Binder	Kd (human TL1A [1])	Kd (human TL1A [2])	Kd (Cyno TL1A)	Kd (human TL1A [3])	binding result (mouse TL1A [4])	Kd (FcRn)	Kd (mouse TL1A [5])
B1	0.195 nM	0.195 nM	0.408 nM	0.195 nM	no binding	17.1 nM	–
B2	0.482 nM	0.482 nM	0.253 nM	0.482 nM	no binding	22.1 nM	–
B3	0.079 nM	0.079 nM	0.046 nM	0.079 nM	–	16.4 nM	391 nM
